The target of test [1] is actin from Xenopus laevis oocytes (Xenopus laevis (endogenous in oocytes)) (UniProt O93400). The test can be described thus: SEC-MALS + AUC. (In general: Size exclusion chromatography separates by hydrodynamic size, large species first.)
Test [2] deals with Xenopus cyclase-associated protein 1 (Xenopus laevis (endogenous in oocytes)). The test can be described thus: SEC-MALS + AUC.

From paper doi:10.1101/2020.10.02.323899 come the findings set out here.

Consider “Xenopus cyclase-associated protein 1 (natural protein)”, for which the stoichiometry N (XCAP1 per actin (4:4)) in test [1] worked out at 1. In addition, the stoichiometry N (XCAP1 molecules in the complex) in test [2] was 4.
